Data taken from patent publication US20170369592A1, “NOVEL ANTI-FIBROBLAST ACTIVATION PROTEIN (FAP) ANTIBODIES AND USES DERIVED THEREOF” (Mabimmune Diagnostics AG, priority 2015, published 2017).

Columns and labels:
[1] = tested on: obstructive human coronary thrombi and aortic atherosclerotic plaque; test: Confocal immunofluorescence on coronary thrombi and atherosclerotic plaque; settings: Cyanine 3 labelled antibody
Experimental: NI-206.82C2 was labelled with Cyanine 3 for fluorescent imaging (Cy3 conjugation kit: Innova Biosciences, 340-0030) and antibody labelling was validated using a spectophotometer. Cryosections from myocardial infarction causing obstructive human coronary thrombi (FIG. 14, A) and human aortic atherosclerotic plaque (FIG. 14, B) were fixed for 5 minutes in ice cold acetone and allowed to dry for 10 minutes before washing in PBS. The sections were then incubated for 1 hr at room temperature in 5% BSA in PBS, and then incubated with Cyanine 3 labelled antibodies overnight at 4° C., before washing three times in PBS before incubation with DAPI at 0.5 μg/mL. Sections were then washed three additional times in PBS and mounted in Lisbeth's mounting medium before imaging on a SP8 confocal microscope (Leica Microsystems).

[2] = tested on: carotid artery photochemical injury-induced thrombosis; test: Carotid artery photochemical injury-induced thrombosis model; type: in vivo, mouse; settings: 95% confidence interval=0.01-0.16, p<0.0001
Experimental: The carotid artery photochemical injury-induced thrombosis model begins with anesthesia by intraperitoneal injection of sodium pentobarbital (87 mg/kg body weight). After slight tail warming (using warm water) rose bengal (10 mg/mL in PBS) is injected into the tail vein in a volume of 0.12 mL at a concentration of 50 mg/kg. Mice will then be secured in a supine position (with the head pointing towards the operator) and placed on a heating pad (rectal temperature will be monitored) under a dissecting microscope. Following a (2.5-3 cm) midline cervical incision and a small incision of the larynx to provide a tracheostoma, by blunt preparation the right common carotid artery is exposed and cleared of connective tissue. A surgical stitch is employed to fix the stemocleidomastoid muscle aside to the right and increase access area to the right carotid artery. Care must be taken to avoid excessive vessel manipulation during procedures. […] Flow will be measured during these 60 minutes and for further 60 minutes (max time elapse 120 minutes) or until occlusion occurs. […]
Mice will be placed on a heating pad, to avoid a drop of body temperature. Heart rate (probe measuring the blood flow will also measure the heart rate) will be monitored during the surgery. […]

[3] = tested on: multiple myeloma cells and tumor stroma in the syngeneic MOPC315.BM mouse model; test: Immunofluorescence on murine multiple myeloma tissues; settings: Cy5 labelled antibody, MOPC315.BM BALB/c mice
Experimental: BALB/c mice were injected with 2×10^6 of the murine multiple myeloma cell line […] intravenously. BALB/c mice were injected with a vehicle-only control. Bone tissue was harvested and fixed in 4% PFA, decalcified in 10% EDTA (pH 7.4), embedded in paraffin before being sectioned (4 μm) and rehydrated. Then, CD138 mAb (Clone 281-2, BD Pharmingen) and Cy5 labelled NI-206.82C2 were used to identify MOPC315.BM.Luc cell infiltration, and NI-206.82C2 binding to these cells and surrounding stromal cells in the tissue sections. Stained tissue sections were then imaged using a fluorescent microscope (FIG. 13).

[4] = tested on: 4T1 breast tumor; test: In-vivo fluorescence imaging in 4T1 breast tumor bearing Balb/c mice; settings: fluorescently labeled antibody, tumor mouse model
Experimental: These antibodies are designated as A680-82C2 (Alexa 680 labelled 82C2) and A680-43A11 (Alexa 680 labelled 43A11).
A murine cancer model was generated by the injection of 100′000 4T1 cultured breast tumor cells orthotopically into the 2nd left breast of Balb/c immunocompetent mice and allowed to grow for 7 days. Prior to in vivo imaging, the animals were shaved and de-epilated to remove fur for minimal absorbance and scattering of the incident optical light. In-vivo imaging was performed with the Maestro 500 imaging system (Cambridge Research Inc, Woburn, USA). For A680-82C2 detection, a band pass filter from 615 nm-665 nm and a highpass filter over 700 nm were used for excitation and emission light respectively, and fluorescence was detected by a CCD camera (cooled to 11° C.). A series of images were acquired at different wavelengths and then subjected to spectral unmixing (deconvolution of collected optical spectra; this enabled the unmixing of the Alexa680 fluorescence pattern from tissue auto-fluorescence and other spectral contributions).
The 4T1-breast tumor bearing Balb/c mice (3-4 in each group) were then injected on day 7 after innoculation with 2 mg/kg of A680-82C2 or A680-43A11. Whole mice images were acquired at the following timepoints: before antibody injection, immediately after antibody injection, 6h, 24h, 48h, and 6d after antibody injection.

B1: NI-206.82C2: recombinant human memory B cell-derived monoclonal anti-FAP IgG1 antibody, variable regions in FIG. 1A, FAP inhibitory (antibody, V domains shown)
VH: QVQLQQSGPGLVKPSQTLSLTCAISGDSVSSNSVTWNWIRQSPSRGLEWLGRTYYRSKWYNDYAVSVKGRITINPDTSKNQFYLQLKSVTPEDAAVYYCARDSSILYGDYWGQGTLVTVSS
VL: QAVLTQPSSLSASPGASASLTCTLPSGINVGTYRIFWFQQKPGSPPQYLLSYKSDSDNHQGSGVPSRFSGSKDASANAGILLISGLQSEDEADYYCMIWHSSAWVFGGGTKLTVL
binding to obstructive human coronary thrombi and aortic atherosclerotic plaque [1]: binds
Log-rank hazard ratio, arterial occlusion versus 43A11 [2]: 0.04
binding to multiple myeloma cells and tumor stroma [3]: binds
antibody concentration after 6 d post antibody injection [4]: almost zero
